{"source": "paper PMC5479570"}
{"molecular_target": "CD4-IgG2 (UniProt P01730)", "experiment": "BLI", "units": {"Kd": "nM", "koff": "s⁻¹", "kon": "M⁻¹ s⁻¹"}}
{"substance": "HIV-1 clade B YU2 gp120 extended core (Coree) (domain or fragment)", "Kd": 0.12, "koff": "5.9e-05", "kon": 474000}
{"substance": "HIV-1 clade B YU2 gp120 glycoprotein, ΔV1/V2 (from UniProt P35961 32-498) (natural protein)", "Kd": 0.34, "koff": "5.4e-05", "kon": 178000}
{"substance": "HIV-1 clade B YU2 gp120 glycoprotein, ΔV3 (from UniProt P35961 32-498) (natural protein)", "Kd": 0.91, "koff": 0.00015, "kon": 160000}
